# Laboratory results reported in publication PMC8998336 (2022).
# Tests used:
# [1] = biological target: T1, human cationic trypsin (TRY1) p.S200A (human, UniProt P07477 24-247, p.S200A); test: SPR
# [2] = biological target: T1, human cationic trypsin (TRY1) p.S200A; test: SPR; remark: listed apart in the source
# [3] = biological target: human cationic trypsin (TRY1) WT (human, UniProt P07477 24-247); test: trypsin activity assay
Binder,Kd [1] [nM],koff [2] [s⁻¹],Ki [3] [nM]
serine protease inhibitor Kazal-type 1 (SPINK1) p.N34S (natural protein) DSLGREAKCYSELNGCTKIYDPVCGTDGNTYPNECVLCFENRKRQTSILIQKSGPC,0.863,0.0002,0.045
serine protease inhibitor Kazal-type 1 (SPINK1) WT (natural protein) DSLGREAKCYNELNGCTKIYDPVCGTDGNTYPNECVLCFENRKRQTSILIQKSGPC,0.8,0.0002,0.028
